B1: recombinant polypeptide SKP2-K19 (N-SKP2 (second polypeptide)-linker peptide-K19 (first polypeptide)-C) (other)
chain: MGGLDYKDDDDKASHRKHLQEIPDLSSNVATSFTWGWDSSKTSELLSGMGVSALEKEEPDSENIPQELLSNLGHPESPPRKRLKSKGSDKDFVIVRRPKLNRENFPGVSWDSLPDELLLGIFSCLCLPELLKVSGVCKRWYRLASDESLWQTLDLTGKNLSGSGSGSGMDLGKKLLEAARAGQDDEVRILMANGADVNASDRGGGTPLHLAAAGGHLEIVEVLLKRGADVSAADLHGQSPLHLAAMVGHLEIVEVLLKYGADVNAKDTMGATPLHLAARSGHLEIVEELLKNGADMNAQDKFGKTTFDISTDNGNEDLAEILQKL
B2: recombinant polypeptide K19-SOCS2 (N-K19 (first polypeptide)-linker peptide-SOCS2 (second polypeptide)-C) (other)
chain: MDLGKKLLEAARAGQDDEVRILMANGADVNASDRGGGTPLHLAAAGGHLEIVEVLLKRGADVSAADLHGQSPLHLAAMVGHLEIVEVLLKYGADVNAKDTMGATPLHLAARSGHLEIVEELLKNGADMNAQDKFGKTTFDISTDNGNEDLAEILQKLSGSGSGSGPRNGTVHLYLTKPLYTSAPSLQHLCRLTINKCTGAIWGLPLPTRLKDYLEEYKFQVGS
B3: recombinant polypeptide K19-ASB1 (N-K19 (first polypeptide)-linker peptide-ASB1 (second polypeptide)-C) (other)
chain: MDLGKKLLEAARAGQDDEVRILMANGADVNASDRGGGTPLHLAAAGGHLEIVEVLLKRGADVSAADLHGQSPLHLAAMVGHLEIVEVLLKYGADVNAKDTMGATPLHLAARSGHLEIVEELLKNGADMNAQDKFGKTTFDISTDNGNEDLAEILQKLSGSGSGSGVKWESLGPESRGRRKVDPEALQVFKEARSVPRTLLCLCRVAVRRALGKHRLHLIPSLPLPDPIKKFLLHEGS
B4: recombinant polypeptide βTrCP-K19 (N-βTrCP (second polypeptide)-linker peptide-K19 (first polypeptide)-C) (other)
chain: MGGLDYKDDDDKASDPAEAVLQEKALKFMNSSEREDCNNGEPPRKIIPEKNSLRQTYNSCARLCLNQETVCLASTAMKTENCVAKTKLANGTSSMIVPKQRKLSASYEKEKELCVKYFEQWSESDQVEFVEHLISQMCHYQHGHINSYLKPMLQRDFITALPARGLDHIAENILSYLDAKSLCAAELVCKEWYRVTSDGMLWKKLIERMVRTDSLWRGLAERRGWGQYLFKNKPPDGNAPPNSFYRALYPKIIQDIETIESNWRCGRHSLQRIHCRSGSGSGSGMDLGKKLLEAARAGQDDEVRILMANGADVNASDRGGGTPLHLAAAGGHLEIVEVLLKRGADVSAADLHGQSPLHLAAMVGHLEIVEVLLKYGADVNAKDTMGATPLHLAARSGHLEIVEELLKNGADMNAQDKFGKTTFDISTDNGNEDLAEILQKL
B5: recombinant polypeptide K19-SPOP (N-K19 (first polypeptide)-linker peptide-SPOP (second polypeptide)-C) (other)
chain: MDLGKKLLEAARAGQDDEVRILMANGADVNASDRGGGTPLHLAAAGGHLEIVEVLLKRGADVSAADLHGQSPLHLAAMVGHLEIVEVLLKYGADVNAKDTMGATPLHLAARSGHLEIVEELLKNGADMNAQDKFGKTTFDISTDNGNEDLAEILQKLGSGSGSGSVNISGQNTMNMVKVPECRLADELGGLWENSRFTDCCLCVAGQEFQAHKAILAARSPVFSAMFEHEMEESKKNRVEINDVEPEVFKEMMCFIYTGKAPNLDKMADDLLAAADKYALERLKVMCEDALCSNLSVENAAEILILADLHSADQLKTQAVDFINYHASDVLETSGWKSMVVSHPHLVAEAYRSLASAQCPFLGPPRKRLKQS
B6: recombinant polypeptide K19-CHIP (N-K19 (first polypeptide)-linker peptide-CHIP (second polypeptide)-C) (other)
chain: MDLGKKLLEAARAGQDDEVRILMANGADVNASDRGGGTPLHLAAAGGHLEIVEVLLKRGADVSAADLHGQSPLHLAAMVGHLEIVEVLLKYGADVNAKDTMGATPLHLAARSGHLEIVEELLKNGADMNAQDKFGKTTFDISTDNGNEDLAEILQKLSGSGSGSGRLNFGDDIPSALRIAKKKRWNSIEERRIHQESELHSYLSRLIAAERERELEECQRNHEGDEDDSHVRAQQACIEAKHDKYMADMDELFSQVDEKRKKRDIPDYLCGKISFELMREPCITPSGITYDRKDIEEHLQRVGHFDPVTRSPLTQEQLIPNLAMKEVIDAFISENGWVEDYGS
B7: recombinant polypeptide CRBN-K19 (N-CRBN (second polypeptide)-linker peptide-K19 (first polypeptide)-C) (other)
chain: MGGLDYKDDDDKASAGEGDQQDAAHNMGNHLPLLPAESEEEDEMEVEDQDSKEAKKPNIINFDTSLPTSHTYLGADMEEFHGRTLHDDDSCQVIPVLPQVMMILIPGQTLPLQLFHPQEVSMVRNLIQKDRTFAVLAYSNVQEREAQFGTTAEIYAYREEQDFGIEIVKVKAIGRQRFKVLELRTQSDGIQQAKVQILPECVLPSTMSAVQLESLNKCQIFPSKPVSREDQCSYKWWQKYQKRKFHCANLTSWPRWLYSLYDAETLMDRIKKQLREWDENLKDDSLPSNPIDFSYRVAACLPIDDVLRIQLLKIGSAIQRLRCELDIMNKCTSSGSGSGSGMDLGKKLLEAARAGQDDEVRILMANGADVNASDRGGGTPLHLAAAGGHLEIVEVLLKRGADVSAADLHGQSPLHLAAMVGHLEIVEVLLKYGADVNAKDTMGATPLHLAARSGHLEIVEELLKNGADMNAQDKFGKTTFDISTDNGNEDLAEILQKL
B8: recombinant polypeptide DDB2-K19 (N-DDB2 (second polypeptide)-linker peptide-K19 (first polypeptide)-C) (other)
chain: MGGLDYKDDDDKASAPKKRPETQKTSEIVLRPRNKRSRSPLELEPEAKKLCAKGSGPSRRCDSDCLWVGLAGPQILPPCRSIVRTLHQHKLGRASWPSVQQGLQQSFLHTLDSYRILQKAAPFDRRASGSGSGSGMDLGKKLLEAARAGQDDEVRILMANGADVNASDRGGGTPLHLAAAGGHLEIVEVLLKRGADVSAADLHGQSPLHLAAMVGHLEIVEVLLKYGADVNAKDTMGATPLHLAARSGHLEIVEELLKNGADMNAQDKFGKTTFDISTDNGNEDLAEILQKL
B9: recombinant polypeptide FBW7-K19 (N-FBW7 (second polypeptide)-linker peptide-K19 (first polypeptide)-C) (other)
chain: MGGLDYKDDDDKASCVPRSGLILSCICLYCGVLLPVLLPNLPFLTCLSMSTLESVTYLPEKGLYCQRLPSSRTHGGTESLKGKNTENMGFYGTLKMIFYKMKRKLDHGSEVRSFSLGKKPCKVSEYTSTTGLVPCSATPTTFGDLRAANGQGQQRRRITSVQPPTGLQEWLKMFQSWSGPEKLLALDELIDSCEPTQVKHMMQVIEPQFQRDFISLLPKELALYVLSFLEPKDLLQAAQTCRYWRILAEDNLLWREKCKEEGIDEPLHIKRRKVIKPGFIHSPWKSAYIRQHRIDTNWRRGELKSPSGSGSGSGMDLGKKLLEAARAGQDDEVRILMANGADVNASDRGGGTPLHLAAAGGHLEIVEVLLKRGADVSAADLHGQSPLHLAAMVGHLEIVEVLLKYGADVNAKDTMGATPLHLAARSGHLEIVEELLKNGADMNAQDKFGKTTFDISTDNGNEDLAEILQKL

Target: KRAS protein (UniProt P01116 1-186, limits assumed)
Test: cell-based or functional assay

Binder | Percentage of KRAS protein level (Western Blot, H358 cells, 6 hours after transfection; protein level of EV29-K19-VHKC as control) [%]
B1 | 20.4
B2 | 47.3
B3 | 39.8
B4 | 19.3
B5 | 22.4
B6 | 28.3
B7 | 28.2
B8 | 52.6
B9 | 45.9

Reference: patent US20230042694A1 (SUZHOU CUREMED BIOMEDICAL TECHNOLOGY, published 2023)
